Experimental data published in the RNAGym collection of RNA variant scans (doi:10.1073/pnas.2313332121).
Variants at the floor of the assay were thinned out.

B1: TPR 5TU (parent)
chain: GGAUCUUCUCGAUCUAACAAAAAAGACAAAUCUGCCACAAAGCUUGAGAGCAUCUUCGGAUGCAGAGGCGGCAGCCUUCGGUGGCGCGAUAGCGCCAACGUUCUCAACUAUGACACGCAAAACGCGUGCUCCGUUGAAUGGAGUUUAUCAUG

Variants of: B1
Assay: polymerase ribozyme fitness, log enrichment relative to wild type (log ratio); higher = more active; in vitro selection for triplet polymerase activity
Outline: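 PCR was used to build mutant libraries for each subunit of a heterodimeric triplet polymerase ribozyme, which were then transcribed. A single in vitro selection round, in triplicate, used a frozen incubation at −7 °C and recovered extended constructs by gel excision, streptavidin beads and RT-PCR. Fitness is the logarithm of genotype enrichment relative to wild-type enrichment, averaged over replicates with inverse-variance weights. The logarithm is base 2, and after Illumina sequencing only genotypes with ≥10 input reads and ≥1 read per output were kept.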

Q: With U45C U56A A91G U111A as the variant, how does the “polymerase ribozyme fitness (log ratio)” value read?
A: ≤ -4.2

Q: With C118A U144A as the variant, how does the “polymerase ribozyme fitness (log ratio)” value read?
A: 0.0258

Q: For G81A C93U C95U, which “polymerase ribozyme fitness (log ratio)” value is on record?
A: -1.11

Q: With A39C G65C G83C G143A A150U as the variant, how does the “polymerase ribozyme fitness (log ratio)” value read?
A: ≤ -4.2

Q: For C93G C105A G136U, which “polymerase ribozyme fitness (log ratio)” value is on record?
A: ≤ -4.2

Q: With A28U C35U as the variant, how does the “polymerase ribozyme fitness (log ratio)” value read?
A: -4.12

Q: With C72U G92U U135A G143A as the variant, how does the “polymerase ribozyme fitness (log ratio)” value read?
A: -3.54

Q: With C14G A30U A41C C43U G50C U55G C75G C118U A119C as the variant, how does the “polymerase ribozyme fitness (log ratio)” value read?
A: ≤ -4.2

Q: For A20U A47U A49C U53A G80C A91U C96U A137G G140U, which “polymerase ribozyme fitness (log ratio)” value is on record?
A: ≤ -4.2

Q: Which “polymerase ribozyme fitness (log ratio)” value does the source give for A3U A28C C63U C85U A142C G152U here?
A: -3.91

Q: For A121U U145C, which “polymerase ribozyme fitness (log ratio)” value is on record?
A: 1.15

Q: Which “polymerase ribozyme fitness (log ratio)” value does the source give for U53A G58C here?
A: -1.52

Q: With G58A U102G A121U as the variant, how does the “polymerase ribozyme fitness (log ratio)” value read?
A: -2.85

Q: Which “polymerase ribozyme fitness (log ratio)” value does the source give for A52U C93A U139G here?
A: ≤ -4.2

Q: Which “polymerase ribozyme fitness (log ratio)” value does the source give for C38U A39C A60U here?
A: -3.28

Q: With G25A G34C U44A G84A G88A as the variant, how does the “polymerase ribozyme fitness (log ratio)” value read?
A: ≤ -4.2

Q: With A22C A23G G62A A91G A98U C114A U146A as the variant, how does the “polymerase ribozyme fitness (log ratio)” value read?
A: ≤ -4.2

Q: For A20G C54G C96U, which “polymerase ribozyme fitness (log ratio)” value is on record?
A: -2

Q: For A40G C85A G133C G136A, which “polymerase ribozyme fitness (log ratio)” value is on record?
A: -3.86

Q: For A37G U55A A66G C75U C85A A122U, which “polymerase ribozyme fitness (log ratio)” value is on record?
A: ≤ -4.2

Q: With G62U C132A as the variant, how does the “polymerase ribozyme fitness (log ratio)” value read?
A: ≤ -4.2

Q: With C14U A28U A122G G141C as the variant, how does the “polymerase ribozyme fitness (log ratio)” value read?
A: -4.15

Q: For U7C A17G A23U A52C C76G C85U C93A G128U G152C, which “polymerase ribozyme fitness (log ratio)” value is on record?
A: ≤ -4.2

Q: For C76A U77G C95U G100U, which “polymerase ribozyme fitness (log ratio)” value is on record?
A: -4.15

Q: With A3G C18U C27G A28U U78A as the variant, how does the “polymerase ribozyme fitness (log ratio)” value read?
A: ≤ -4.2

Q: Which “polymerase ribozyme fitness (log ratio)” value does the source give for C93U G117C C125A here?
A: -0.271

Q: For C5A A17U G83U C87G, which “polymerase ribozyme fitness (log ratio)” value is on record?
A: ≤ -4.2

Q: Which “polymerase ribozyme fitness (log ratio)” value does the source give for G84A U144A here?
A: -1.65

Q: Which “polymerase ribozyme fitness (log ratio)” value does the source give for U53A U56C G141U here?
A: -0.733

Q: Which “polymerase ribozyme fitness (log ratio)” value does the source give for C54G C72U U82A U90G G141C here?
A: ≤ -4.2

Q: For A37C C114U, which “polymerase ribozyme fitness (log ratio)” value is on record?
A: -3.07

Q: With C10A G50A A60G G86A G133C as the variant, how does the “polymerase ribozyme fitness (log ratio)” value read?
A: ≤ -4.2

Q: With C32G C38U G58A U82A C96A U104G A110C G133A U139A G152U as the variant, how does the “polymerase ribozyme fitness (log ratio)” value read?
A: ≤ -4.2

Q: For G92U A138C, which “polymerase ribozyme fitness (log ratio)” value is on record?
A: -3.95

Q: Which “polymerase ribozyme fitness (log ratio)” value does the source give for A37U A115C A119C here?
A: -2.95

Q: With G48A C87U A91U C93U as the variant, how does the “polymerase ribozyme fitness (log ratio)” value read?
A: ≤ -4.2

Q: For A16C U45G A106G, which “polymerase ribozyme fitness (log ratio)” value is on record?
A: -0.613

Q: Which “polymerase ribozyme fitness (log ratio)” value does the source give for C5A A21G G88C here?
A: -4.09

Q: For A12G U31G C118A A120G G141C, which “polymerase ribozyme fitness (log ratio)” value is on record?
A: -2.6

Q: Which “polymerase ribozyme fitness (log ratio)” value does the source give for A20U A97U here?
A: -2.04

Q: With A22U A28G as the variant, how does the “polymerase ribozyme fitness (log ratio)” value read?
A: -3.35

Q: For A12U A20C G86U G100U U151A, which “polymerase ribozyme fitness (log ratio)” value is on record?
A: ≤ -4.2

Q: Which “polymerase ribozyme fitness (log ratio)” value does the source give for A20U U31G C43G A52U A73C C93U G94U C116G A121G C149U here?
A: ≤ -4.2

Q: For A19U A20G A66G G80A C87A A107G A110C, which “polymerase ribozyme fitness (log ratio)” value is on record?
A: ≤ -4.2

Q: With A17G A49C G59U G92A A113G A119U as the variant, how does the “polymerase ribozyme fitness (log ratio)” value read?
A: -4.03

Q: Which “polymerase ribozyme fitness (log ratio)” value does the source give for C8A C93U here?
A: -3.42

Q: For A21U C85U C131U U145G U151A, which “polymerase ribozyme fitness (log ratio)” value is on record?
A: ≤ -4.2

Q: With A52G G81A as the variant, how does the “polymerase ribozyme fitness (log ratio)” value read?
A: -0.481

Q: With A24U A41C U45A G46C A49C G86A as the variant, how does the “polymerase ribozyme fitness (log ratio)” value read?
A: -3.99

Q: For A30C G68A C87U A106U A120G, which “polymerase ribozyme fitness (log ratio)” value is on record?
A: ≤ -4.2

Q: For G140A U144A, which “polymerase ribozyme fitness (log ratio)” value is on record?
A: -3.68

Q: With A12C A29U G68C A73C G80U G84C as the variant, how does the “polymerase ribozyme fitness (log ratio)” value read?
A: ≤ -4.2

Q: Which “polymerase ribozyme fitness (log ratio)” value does the source give for A29U G50A G58C A60C G88A C116G U139A G141C G143C here?
A: -3.79

Q: Which “polymerase ribozyme fitness (log ratio)” value does the source give for U6A C27A C85G here?
A: ≤ -4.2

Q: For C35A U61A C103G U104C C116U, which “polymerase ribozyme fitness (log ratio)” value is on record?
A: ≤ -4.2

Q: With A20G G81A C96U C114G U127G A142C as the variant, how does the “polymerase ribozyme fitness (log ratio)” value read?
A: ≤ -4.2

Q: Which “polymerase ribozyme fitness (log ratio)” value does the source give for C8U A19C A40G C96U A142U here?
A: ≤ -4.2

Q: With G48A A52U U56A U78A A98U U139C as the variant, how does the “polymerase ribozyme fitness (log ratio)” value read?
A: ≤ -4.2

Q: Which “polymerase ribozyme fitness (log ratio)” value does the source give for A22U A41G G81A C87U C99U A119G G152A here?
A: -2.3

Q: Which “polymerase ribozyme fitness (log ratio)” value does the source give for U6C here?
A: -0.0891

Q: Which “polymerase ribozyme fitness (log ratio)” value does the source give for A16G A20U C118U A137U here?
A: ≤ -4.2

Q: For A20U A29G A91C C93A G128U, which “polymerase ribozyme fitness (log ratio)” value is on record?
A: ≤ -4.2

Q: For U55A C105G G141U, which “polymerase ribozyme fitness (log ratio)” value is on record?
A: -2.82

Q: With G25U A39U U53A C76G U145A as the variant, how does the “polymerase ribozyme fitness (log ratio)” value read?
A: ≤ -4.2

Q: For U13C C38U G86A G124C, which “polymerase ribozyme fitness (log ratio)” value is on record?
A: -1.98

Q: With C76G G88A G136A U139G as the variant, how does the “polymerase ribozyme fitness (log ratio)” value read?
A: ≤ -4.2

Q: With U61C U82C C116U U134C as the variant, how does the “polymerase ribozyme fitness (log ratio)” value read?
A: -2.24

Q: Which “polymerase ribozyme fitness (log ratio)” value does the source give for C27U G84A A89G here?
A: -3.59

Q: Which “polymerase ribozyme fitness (log ratio)” value does the source give for A17G A52U G83A C95U here?
A: -3.91

Q: Which “polymerase ribozyme fitness (log ratio)” value does the source give for A30U G84A C96U U144A here?
A: ≤ -4.2

Q: With C105G C118A as the variant, how does the “polymerase ribozyme fitness (log ratio)” value read?
A: -3.26

Q: For G70C G86A C114U A115G G143U A150C, which “polymerase ribozyme fitness (log ratio)” value is on record?
A: ≤ -4.2

Q: For A24C U56A G68A G141A, which “polymerase ribozyme fitness (log ratio)” value is on record?
A: ≤ -4.2

Q: With U15G A22U U56A A66C G117A A138G U146C as the variant, how does the “polymerase ribozyme fitness (log ratio)” value read?
A: ≤ -4.2

Q: For U31C G86U C96U, which “polymerase ribozyme fitness (log ratio)” value is on record?
A: -0.694

Q: Which “polymerase ribozyme fitness (log ratio)” value does the source give for G25U A89C here?
A: -3.41

Q: For C5A C69G G84A C108U, which “polymerase ribozyme fitness (log ratio)” value is on record?
A: -3.39

Q: For A89C C105U, which “polymerase ribozyme fitness (log ratio)” value is on record?
A: 0.174

Q: With C76G G94C as the variant, how does the “polymerase ribozyme fitness (log ratio)” value read?
A: ≤ -4.2

Q: With C95U U102G as the variant, how does the “polymerase ribozyme fitness (log ratio)” value read?
A: -1.19

Q: Which “polymerase ribozyme fitness (log ratio)” value does the source give for C57U U61G G86A A89U here?
A: -3.74

Q: Which “polymerase ribozyme fitness (log ratio)” value does the source give for C8A A16G G50U G83C U135C G136C here?
A: ≤ -4.2

Q: For A89U G141C, which “polymerase ribozyme fitness (log ratio)” value is on record?
A: -0.255

Q: With A60G U104G G136U U144C as the variant, how does the “polymerase ribozyme fitness (log ratio)” value read?
A: -3.29
